This passage reports Kd results from publication PMC12307502.

The series addresses AβO (amyloid-beta oligomer) (UniProt P05067). Description: fluorescence quenching titration (Cy5/BHQ3), LangmuirEXT1 fit. As to conditions: 25 °C; buffer not stated for the aptamer-only binding assays (AβO detection assay: 50 mM Tris-HCl pH 8, 10 mM MgCl2).
Chain of UniProt P05067 (P05067 whole entry): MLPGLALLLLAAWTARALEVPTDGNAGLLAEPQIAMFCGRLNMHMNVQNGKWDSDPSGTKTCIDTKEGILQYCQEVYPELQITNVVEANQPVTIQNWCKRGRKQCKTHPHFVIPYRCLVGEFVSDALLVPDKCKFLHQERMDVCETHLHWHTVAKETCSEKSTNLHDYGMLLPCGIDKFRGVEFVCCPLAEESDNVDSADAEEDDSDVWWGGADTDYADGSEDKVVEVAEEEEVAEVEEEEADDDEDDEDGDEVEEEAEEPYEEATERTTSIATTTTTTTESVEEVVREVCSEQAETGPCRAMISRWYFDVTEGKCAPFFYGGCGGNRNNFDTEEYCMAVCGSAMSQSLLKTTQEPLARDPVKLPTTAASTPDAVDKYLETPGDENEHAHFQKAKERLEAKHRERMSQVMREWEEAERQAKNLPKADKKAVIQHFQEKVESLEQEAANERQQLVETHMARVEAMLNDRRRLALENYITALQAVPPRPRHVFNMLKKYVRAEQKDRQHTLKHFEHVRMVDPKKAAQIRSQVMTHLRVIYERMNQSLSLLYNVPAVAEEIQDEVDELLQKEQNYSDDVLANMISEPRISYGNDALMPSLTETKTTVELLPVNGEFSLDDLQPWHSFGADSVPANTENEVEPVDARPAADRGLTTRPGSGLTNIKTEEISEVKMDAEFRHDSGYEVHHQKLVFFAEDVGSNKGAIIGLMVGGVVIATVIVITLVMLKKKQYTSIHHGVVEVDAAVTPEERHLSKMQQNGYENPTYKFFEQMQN

Turning to “TGACCAACGCCTGTGGTGTTGGGGCGGGTGCGGTTGGTCA [A4]”, the dissociation constant (Kd) (in general, the equilibrium constant for the complex coming apart) stood at 7.54 nM.
